{
  "source": "patent US5574007A",
  "about": "“Polypeptide capable of interacting with thrombin” (Asahi Kasei Kogyo Kabushiki Kaisha, priority 1990, dated 1996)",
  "key": {"[1]": {"biological_target": "thrombin (Homo sapiens, UniProt P00734)", "test": "Capability of binding to thrombin of thrombomodulin deletion polypeptides", "details": "expressed in COS-1 cells, purified"}, "[2]": {"biological_target": "T1, thrombin-catalyzed activation of protein C (Homo sapiens, UniProt P00734)", "T1 construct": "are added 50 μg/ml protein C, 5 nM thrombin and 5 nM of each of the purified polypeptides", "test": "Activity to promote the activation of protein C (Example 9-(4))", "assay_type": "biochemical", "method": "With respect to the polypeptide purified in Example 9-(3), the activity to promote the activation of protein C is measured according to the following method. That is, 10 μl of a peptide solution (10 nM), 10 μl of thrombin (15 nM), 10 μl of protein C (3.2 μM), 10 μl of 10×Assay buffer [0.5M Tris HCl (pH 7.5) containing 1% BSA, 1M NaCl and 20 mM CaCl2 ] and 60 μl of distilled water are mixed together. The mixture is reacted at 37° C. for one hour, and antithrombin III and hepalin are added at final concentrations of 100 nM and lu/ml, respectively, thereby stopping the reaction. To measure the concentration of activated protein C, the concentration of AMC ([…]) liberated from a 200 μM substrate of Boc-Leu-Ser-Thr-Arg-MCA in a buffer containing 0.05M Tris HCl (pH 8.0) and 0.1M CsCl is measured at an excitation wavelength of 380 nm and a measuring wavelength of 440 nm."}, "[3]": {"biological_target": "T1, thrombin-catalyzed activation of protein C", "test": "Activated protein C formation against reaction time with purified polypeptide (Example 4-(6))", "assay_type": "biochemical", "method": "To 0.02M Tris-HCl buffer (pH 8.5) containing 0.1M NaCl, 0.5 mM CaCl2 and 10 mg/ml BSA are added 50 μg/ml protein C, 5 nM thrombin and 5 nM of each of the purified polypeptides of the present invention, and reacted at 37° C. To each of the reaction mixtures are added 300 μg/ml antithrombin III (manufactured and sold by Sigma Chemical Company, U.S.A.) and 5 mM EDTA to terminate the reaction. Then, the amount of the activated protein C produced by the reaction is determined by the method described in Example 1-(3) in which a synthetic substrate is used."}, "[4]": {"biological_target": "T2, thrombin-catalyzed conversion of fibrinogen to fibrin (Homo sapiens, UniProt P00734)", "T2 construct": "Then, 10 nM thrombin is added to the mixture", "test": "Anticoagulating activity: clotting time of a fibrinogen solution", "assay_type": "biochemical", "details": "0 to 50 nM polypeptide, 10 nM thrombin; polypeptide from COS-1 or CHO cells", "method": "The activity of each of the polypeptides of the present invention to inhibit the thrombin-catalyzed conversion of fibrinogen to fibrin so as to inhibit blood coagulation, is determined by measuring clotting time using Coagulometer KC-10A (manufactured and sold by Heinrich Amelung A.G., Germany). Illustratively stated, to 0.05M Tris-HCl buffer (pH 7.5) containing 5 mM CaCl2 and 0.1M NaCl is added 3.0 μg of fibrinogen (Fraction I, manufactured and sold by Sigma Chemical Company, U.S.A.). To the resultant mixture is added 0 to 50 nM of each of the purified polypeptides of the present invention. Then, 10 nM thrombin is added to the mixture in such an amount that the total amount of the mixture becomes 0.4 ml, and then the coagulation time of the mixture is measured."}, "[5]": {"tested_on": "thrombin-catalyzed platelet aggregation", "test": "Platelet aggregation-inhibiting activity (Platelet Rich Plasma, HEMA TRACER IV)", "assay_type": "cell-based", "details": "polypeptide in molar amount equal to or more than thrombin; polypeptide from COS-1 or CHO cells", "method": "The activity of each of the polypeptides of the present invention to inhibit the thrombin-catalyzed platelet aggregation is evaluated using platelet aggregation measuring apparatus HEMA TRACER IV (manufactured and sold by NIKO Bioscience, Inc., Japan). Measurement is carried out according to the manual attached thereto. When 40 μl of a 20 NIH unit/ml thrombin solution (manufactured and sold by SIGMA Chemical Co., U.S.A., T 6759) is added to 180 μl of a Platelet Rich Plasma (PRP) platelet solution (3×10^5 cells/μl) and incubated, the aggregation of platelets occurs. […] The aggregation of platelets is determined on the basis of the transparency, assuming the transparency of Platelet Poor Plasma (PPP) solution as 100%. The ratio of platelet aggregation is plotted against the incubation time (0 min: the time when thrombin or a mixture of thrombin and one of the polypeptides is added to the PRP solution). It is confirmed that the platelet aggregation is inhibited when one of the polypeptides of the present invention is added."}},
  "data": [
    {"molecule": "polypeptide comprised of the 366th to 442nd amino acid residues of human thrombomodulin: deletion polypeptide expressed in COS-1 cells using vector pSV2 (protein) VDPCFRANCEYQCQPLNQTSYLCVCAEGFAPIPHEPHRCQMFCNQTACPADCDPNTQASCECPEGYILDDGFICTDI", "values": [
      {"measurement": "capability of binding to thrombin (in words)", "setting": "[1]", "value": "had the capability of binding to thrombin"}
    ]},
    {"molecule": "E45: polypeptide of the 367th to 442nd amino acid residues of human thrombomodulin (pSV2TMD9) (protein) DPCFRANCEYQCQPLNQTSYLCVCAEGFAPIPHEPHRCQMFCNQTACPADCDPNTQASCECPEGYILDDGFICTDI", "values": [
      {"measurement": "activity relative to that of the 114-amino acid polypeptide", "setting": "[2]", "value": "about one-tenth"},
      {"measurement": "production of activated protein C", "setting": "[2]; peptide solution 10 nM, thrombin 15 nM, protein C 3.2 μM, 37° C., one hour", "value": 1.7, "unit": "pmol"}
    ]},
    {"molecule": "E456GlaAsp: polypeptide from PTTM2 CHO cells transfected with pSV2PTTMM6 (prothrombin leader), gamma-carboxyglutamic acid confirmed (protein, gamma-carboxyglutamic acid (Gla) in place of the Glu inserted before Asp367 (third residue of the purified polypeptide, where Edman degradation detected no amino acid); Gla confirmed by amino acid anal) PVEDPCFRANCEYQCQPLNQTSYLCVCAEGFAPIPHEPHRCQMFCNQTACPADCDPNTQASCECPEGYILDDGFICTDIDECENGGFCSGVCHNLPGTFECICGPDSALVRHIGTDC", "values": [
      {"measurement": "amount of activated protein C with reaction time (in words)", "setting": "[3]; 5 nM polypeptide, 5 nM thrombin, 50 μg/ml protein C, 37° C., polypeptide from COS-1 or CHO cells", "value": "increased with the lapse of reaction time"},
      {"measurement": "amount of protein C activated, larger than in the presence of E456Glu", "setting": "[3]; 30 min after the polypeptide addition", "value": 80, "unit": "%"},
      {"measurement": "clotting time of fibrinogen solution against amount of polypeptide (in words)", "setting": "[4]", "value": "the longer the clotting time"},
      {"measurement": "thrombin-catalyzed platelet aggregation (in words)", "setting": "[5]", "value": "inhibited"}
    ]},
    {"molecule": "polypeptide comprised of the 407th to 480th amino acid residues of human thrombomodulin: deletion polypeptide expressed in COS-1 cells using vector pSV2 (protein) FCNQTACPADCDPNTQASCECPEGYILDDGFICTDIDECENGGFCSGVCHNLPGTFECICGPDSALVRHIGTDC", "values": [
      {"measurement": "capability of binding to thrombin (in words)", "setting": "[1]", "value": "had the capability of binding to thrombin"}
    ]}
  ]
}
